Values quoted from earlier work as cited in patent US20250049892A1, “SEMAGLUTIDE SOLUBLE MICRONEEDLE COMPOSITION AND PREPARATION METHOD THEREFOR” (GUANGZHOU NOVAKEN PHARM CO., LTD., priority 2022, published 2025).

Details: oral administration of semaglutide (with SNAC)

**Q.** With Semaglutide as the substance, how does the bioavailability read?
**A.** The bioavailability was 0.9-1.2%.
